From the RNAGym collection of RNA variant scans (doi:10.1073/pnas.2313332121)

B1: TPR t1 (parent)
chain: GACCAAUCUGCCCUCAGAGCUCGAGAACAUCUUCGGAUGCAGAGGAGGCAGGCUUCGGUGGCGCGAUAGCGCCAACGUCCUCAACCUCCAAUGCAUCCCACCACAUGAUGAUGCCUGAAGAGCCUUGGUUUUUUG

Variants of: B1
Test: polymerase ribozyme fitness, log enrichment relative to wild type (log ratio); higher = more active; in vitro selection for triplet polymerase activity
Procedure, shortened: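 In triplicate, a single round of in vitro selection was run on each mutant library, PCR-built and transcribed, covering one subunit of a heterodimeric triplet polymerase ribozyme. Frozen incubation at −7 °C followed annealing with a biotinylated primer, partner subunit and triplets, and extended constructs were then gel-excised, streptavidin-captured and taken through RT-PCR. Fitness is the logarithm of genotype enrichment over wild-type enrichment, from inverse-variance-weighted replicate averages of Illumina-sequenced inputs and outputs. […] only genotypes with ≥10 input reads and ≥1 read per output were kept.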

First: GACCAAUUUGCCCUCAGAGCUCGAGAACAUCUUCGGAUGUAGAGGAGGCAGGCUUCGGUAGCGCGAUAGCGCCAACGUCCUAAACCUCCAAUGCAUCCCACCACAUGAUGAUGCCUGAAUAGCCUUGGUUUUUUG [C8U C40U G60A C82A G120U]
Second: GACCAAUCUGCCCUCAGAGCUCGAGAACAUCUUCGGAUGCAGAGGAGGCAGGCUUCGGUGGCGCGAUAGCGCCAACGUCCUCAACCUCCAAUGCAUCCCACCACAUGAUGCUGCCUGAAGAGCCUUGGUUUUCUG [A111C U133C]
The “polymerase ribozyme fitness (log ratio)” value of the first is higher: 1.65 for the first, 1.26 for the second.

Compared with GACCAAUCUGCCCUCAGAGCUCGAGAACAUCCUCGGAUGCAGAGGAGGCAGGCUUCGGUGGCGCGAUAGCGGCAACGUCCUCAACCUCCAAUGCAUCCCACCACAUGAUGAUGCCUUAAGAGCCUUGGUUUUUGG [U32C C72G G117U U134G], GACCAAUAUGCCCUCAGAGCUCGAGAACAUCUUCGGAUGCAGAGGAGGAAGGCUUCGGUGGCGCGAUAGCUCCAACGUCCUCAACAUCCAAUGCAUCCCACCACAUGAUGAUGCCUGAAGAACCUUGGUUUUUUG [C8A C49A G71U C86A G122A] is higher in “polymerase ribozyme fitness (log ratio)” value: -1.41 for the first, -0.666 for the second.

First: GACCAAUCUGCCCUCAGAUCUCGAGAACAUCUUCGGAUGCCGAGGAGGCAGGCUUCGGUGGCGCGAUAGCGCCAACGUCCUCAACCUCCAAAGUAUCCCACCACAUGAUGAUGCUUGAAGAGCCUUGGUUUUGUG [G19U A41C U92A C94U C115U U133G]
Second: GACCAAUCUGCACUCAGAGCUCGAGAACAUCUUCGGAUGCAGAGGAGGCCGGUUUCGGUGGCGCGAUAGCGCCCACGUCCUCAACCUCCAAUGCAUCCCACCACAUGAUGAUGCCUGAAGAGCCUUGGUUUUUUG [C12A A50C C53U A74C]
The “polymerase ribozyme fitness (log ratio)” value of the first is lower: -5.87 for the first, -0.606 for the second.

First: GACCAAUCUGCCCUCAGAGCUCGAGAACAUCUUCGGAGGCAUAGGAGGCAGGCUUCGGUGUCGCGAUAGCGCUAACGUCCUCAACCUCCAAUGCAUCCCACCACAUGAUGAUGCUUGAAGAGCCUUGGUUUUUUG [U38G G42U G61U C73U C115U]
Second: GACCAAUCUGCCCUCAGAGCUCGAGCACAUCUUCGGAUGCAGAGGAGGCAGGCGUCGGUGGCGCGAUAGAGCCAACGUCCUCAACCUCCAAUGCAUCCCACCACAUGAGGAUGCCUGAAGAGCCUUGGUUUUUUG [A26C U54G C70A U109G]
The “polymerase ribozyme fitness (log ratio)” value of the first is higher: -3.73 for the first, -5.98 for the second.

Compared with GACCAAUCUGCCCUCAGAGCUCGAGAACAUCUUCGGAUGCAGAGGAGGCAGGCUUCGGUGGCGCGAUAGCACCAACGUCCUCAACCUCCAAUGCAUCCCACCACAUGAUGAGGCCUGAAGAGCCUUGGUUUUUUG [G71A U112G], GACCGAUCUGCCCUUAGAGCUCGAGAACAUCUUCGGAUGCAGAGGAGGCAGGCUUCGGUGGCGCGAUAGCGCCAACGUCCUCAACCUCCAAUUCAUCCCACCACAUGAUGAUGCCUUAAGAGCCUUGGUUUUUUG [A5G C15U G93U G117U] is lower in “polymerase ribozyme fitness (log ratio)” value: -1.07 for the first, -1.5 for the second.

Compared with GACCAAUCUGCCCUCAGAGCUCGAGAACAUCUUCGGAUGCAGAGGAGGCAGGCUUCGGUGGUGCGAUAGCGCCUACGACCUCAACCUCCAAUGCAUCCCACCACAUGAUGAUGCCUGAAGAGCCUUGGUUUUUUG [C62U A74U U78A], GACCAAUCUGCCCUCAGAGCUCGAGAACAUCUUCGGAUGCAGAGGAGGCAGGCUUCGGUGGCGCGAUAUCGCCAACGUCCUCAACCUCCAAUGCAUCCCACCAAAUGAUGAUGCCUGAAGAGCCUAGGUUUUUUG [G69U C104A U126A] is lower in “polymerase ribozyme fitness (log ratio)” value: -0.615 for the first, -1.49 for the second.

Going from GACCAAUCUGCCCUCAGAGCUCGAGAACAUCUUCGGAUGCAGAGGAGGCAGGCUUCGGUGGCACGAUAGCGCCAACGUGCUCAACCUCCAAUGCAUCCCACCACAUGAUGAUGCCUGAAGAGCCUUGGUUUUUUG [G63A C79G] to GACCAAUCUGCCCUCAGAGCUCGAGAACAUCUUCGAAUGCAGAGGAGGCAGGCUUCGGUGGCGUGAUAGCGCCAACGUCCUCAACCUUCAAUGCAUCCCAGCACAUGAUGAUGCCUGAAGAGCCUUGGUUUUUUG [G36A C64U C88U C101G], the “polymerase ribozyme fitness (log ratio)” value rises from -3.65 to -1.84.

Compared with GACCAAUCUGCCCUCAGAGCUCGAGAACAUCUUCGGAUGCAGAGGGGGCAGGCUUAGGUGGCGCGAUAGCGCCAACGUCCUCAACCUCCAAUGCAUCCCAGCACAUGAUGAUGCCUGAAGAGCCUCGGUUUUUUG [A46G C56A C101G U126C], GACCAAUCUGCACUCAGAGCUCGAGAACAUCUUCGGAUGCAGAGGAGGCAGGCUUCAGUGGCGCGAUACCGCCAACGUCCUCAACCUCCAAUGCAUCCCACCACACGAUGAUGCCUGAAGAGCCUUGGUUUUUUG [C12A G57A G69C U106C] is lower in “polymerase ribozyme fitness (log ratio)” value: -2.14 for the first, -2.99 for the second.

Going from GACCAAUCUGCCCUCAGAGCUCGAGAACAUCUUCGGAUGCAGAGGAGGCAGGCUUGGGUGGCGCGAUAGCGCCAACGUCCUCAACCUCCAAUGCAUCGCACCACAUGAUGAUGCCUGAAGAGCCUUGGUUUUUUG [C56G C98G] to GACCAAUCUGCCUUCAGAGCUCGAGAACAUCUUCGGAUGCAGAGGAGGCGGGCUUCGGUGGCGCGAUAGUGCCAACGUUCUCAACGUCCAAUGCAUCCCACCACAUGAUGAUGCCUAAAGAGCCUUGGUUUUUUG [C13U A50G C70U C79U C86G G117A], the “polymerase ribozyme fitness (log ratio)” value rises from -4.96 to -2.99.

Compared with GACCAAUCUGCCCUCAGAGCUCGAGAACAUCUUCGGAUGCAGAGGAGGCAGGCUUCGGUGGCGCGAUAGCGCCAACGUCCUCAACCUACAAUGCUUCCCACAACAUGAUGAUGCCUGAAAAGCCUUGGUUUUUUG [C88A A95U C102A G120A], GACCAAUCUGCCCUCAGAGUUCGAGAACAUCUUCGGAUGCAGAGGAGGCAGGCUUCGGUAACGCGAUAGCGCCAACGUCCUCAACCUCCAAUGCAUCCUACCACAUGAUGAUGCCUGAAGAGCCUUGGUUUUUUG [C20U G60A G61A C99U] is lower in “polymerase ribozyme fitness (log ratio)” value: -3.23 for the first, -5.32 for the second.

In the case of GACCAAUGUGCCCUCAGAGCUCGAGAACAUCUUCGGAUGCAGAGGAGGCAGGCUUCGGUGGCCCGAUAGCGCCAACGUCCUCAACCUCCAAUGCAUCCCACCACAUGAUGAUGCCUGAAGAGCCUUGGUUUUUUG [C8G G63C], the “polymerase ribozyme fitness (log ratio)” value is reported as -1.11.
